Target: T1, Glycoprotein VI extracellular domain (Gln21-Lys267) (Homo sapiens, UniProt Q9HCN6 SEQ:1-247)
T1 chain: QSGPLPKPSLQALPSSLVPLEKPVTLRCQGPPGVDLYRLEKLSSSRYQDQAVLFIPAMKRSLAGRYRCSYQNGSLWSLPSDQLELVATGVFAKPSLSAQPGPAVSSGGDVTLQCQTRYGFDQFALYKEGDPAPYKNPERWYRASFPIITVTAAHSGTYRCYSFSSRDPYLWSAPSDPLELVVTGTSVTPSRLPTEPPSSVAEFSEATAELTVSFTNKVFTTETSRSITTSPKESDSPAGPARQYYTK
Test: filter
Settings: tags: C-terminal His6; R&D Systems 3627-GP; label: 5'-32P
Method: Enrichment of the ligand libraries for GPVI was monitored in direct binding studies utilizing radiolabeled ligand RNA from respective rounds of SELEX and soluble GPVI. Binding studies were performed with trace P³² end-labeled RNA added to serial dilutions of GPVI in Binding Buffer F. To prepare radiolabeled RNAs for binding studies, one hundred picomoles of RNA was dephosphorylated with Bacterial Alkaline Phopshatase at 50° C. for 1 hour. The reaction was phenol:chloroform:isoamyl alcohol (25:24:1) extracted, chloroform: isoamyl:alcohol (24:1) extracted, and ethanol precipitated. Three pmoles of dephosphorylated RNA was end labeled with T4 Poylnucleotide Kinase with supplied buffer, and 20 μCi of γ-P³²-ATP and subsequently cleaned with a Biorad MicroBio Spin P-30 spin column. End-labeled RNA was diluted to a final concentration of 2000 cpm/μL and heat denatured at 65° C. for 5 minutes. RNA and GPVI dilutions were equilibrated at 37° C. prior to use. RNA (5 μL) was added to varying concentrations of GPVI (15 μL) at 37° C. and incubated together for 5 to 15 minutes. The complexed RNA/GPVI protein mixture was then loaded over a Protean BA85 nitrocellulose membrane, overlayed on a Genescreen Plus Nylon membrane, in a 96 well vacuum manifold system with washing. The membranes were exposed to a phosphorimager screen, scanned, and quantitated with a Molecular Dynamics Storm 840 Phosphorimager. The fraction bound was calculated by dividing the counts on the nitrocellulose by the total counts and adjusting for the background. Results for binding of enriched ligand libraries from round 10 E2 and round 10 EF of the SELEX as compared to the GPVI-naïve starting ligand library are shown in FIG. 3.

Q: For GGGAGGACGAUGCGGAUCACACCGCGUCUUGCGUAAGCCUCCU (ssRNA, 2'-F C and U; 2'-OH A and G) [EF-3 T2 (RB430)], which Kd is on record?
A: 15.5 nM

Q: For GGAGGACGGCGCGCCUGGCAUAAGCCUCC (ssRNA, RB551 with PS G8-G9) [RB555], which Kd is on record?
A: < 10 nM

B1: EF-3 (RB429) (ssRNA)
RNA: GGGAGGACGAUGCGGAUCACACCGCGUCUUGCGUAAGCCUCCUACUAACGGAUCGCAGACGACUCGCUGAGGAUCCGAGA
modifications: 2'-F C and U; 2'-OH A and G
Q: How did the Kd turn out when B1 was run?
A: 15.5 nM

Q: GGGAGGACGGCGGUCUAAGCUGCCUGGCAUAAGCCUCCC (ssRNA, 2'-F C and U; 2'-OH A and G) [EF-31 T5 (RB442)] was tested. Which Kd did it give?
A: 15.5 nM

Q: How did the Kd turn out when GGGAGGACGAUGCGGAUUCAACCCGCCUCUGGCAUAAGCCUACCC (ssRNA, 2'-F C and U; 2'-OH A and G) [EF-22 T1 (RB434)] was run?
A: 15.5 nM

Q: For GGGAGGACGAUGCGGUCUAAGCUGCGUCUGGCAUAAGCCUCACCUACU (ssRNA, 2'-F C and U; 2'-OH A and G) [EF-31 T1 (RB436)], which Kd is on record?
A: 15.5 nM

Q: How did the Kd turn out when GGAGGACGGCGCGCCUGGCAUAAGCCUCC (ssRNA, RB540 with PS A6-C7) [RB547] was run?
A: 15.5 nM

Q: With GGAGGACGGCGCGCCUGGCAUAAGCCUCC (ssRNA, RB551 with PS G9-C10) [RB556] as the binder, how does the Kd read?
A: < 10 nM

Q: Which Kd does the source give for GGGAGGACGAUGCGGAUAGACCGCGUCUGGCAUAAGCCUCC (ssRNA, 2'-F C and U; 2'-OH A and G) [E2-6 T1 (RB432)] here?
A: 15.5 nM

Q: Which Kd does the source give for GGGAGGACGGCGGAUCACACCGCCUUGCGUAAGCCUCCC (ssRNA, 2'-F C and U; 2'-OH A and G) [EF-3 T4 (RB446)] here?
A: 15.5 nM

Q: For GGGAGGACGAUGCGGUCUAAGCUGCGUCUGGCAUAAGCCUCCC (ssRNA, 2'-F C and U; 2'-OH A and G) [EF-31 T3 (RB440)], which Kd is on record?
A: 15.5 nM

Q: How did the Kd turn out when GGAGGACGGCGCGCCUGGCAUAAGCCUCC (ssRNA, RB537 with 2'-OMe G17) [RB538] was run?
A: 15.5 nM

Q: With GGGAGGACGGCGCGCCUGGCAUAAGCCUCCC (ssRNA, RB490 pattern but 2'-OH G19 and 2'-F C26) [RB488] as the binder, how does the Kd read?
A: < 10 nM

Q: For GGGAGGACGGCGCGCCUGGCAUAAGCCUCCC (ssRNA, RB490 with 2'-OMe G10) [RB499], which Kd is on record?
A: 15.5 nM

Q: Which Kd does the source give for GGGAGGACGGCGCGCCUUGCAUAAGCCUCCC (ssRNA, RB526 pattern with 2'-F U18) [RB533] here?
A: 15.5 nM

Q: With GGGAGGACGGCGCGCCUGGCAUAAGCCUCCC (ssRNA, RB490 with 2'-OMe C15) [RB500] as the binder, how does the Kd read?
A: < 10 nM

Q: Which Kd does the source give for GGGAGGACGGCGCGCCUUGCGUAAGCCUCCC (ssRNA, RB526 pattern with 2'-F U18 and 2'-OMe G21) [RB534] here?
A: 15.5 nM

Q: Which Kd does the source give for GGGAGGACGACGCGUCUGGCAUAAGCCUCCC (ssRNA, RB526 pattern with 2'-OH A10 and 2'-F U15) [RB535] here?
A: 15.5 nM

Q: How did the Kd turn out when GGGAGGACGGCGCGCCUGGCAUAAGCCUCCC (ssRNA, RB526 with 2'-OMe G18) [RB531] was run?
A: 15.5 nM

Q: Which Kd does the source give for GGGAGGACGGCGCGCCUGGCAUAAGCCUCCC (ssRNA, RB490 with 2'-deoxy C8) [RB496] here?
A: 15.5 nM

Q: How did the Kd turn out when GGGAGGACGGCGCGCCUGGCAUAAGCCUCCC (ssRNA, RB490 with 2'-deoxy A7) [RB495] was run?
A: < 10 nM

Q: With GGGAGGACGGCGCGCCUGGCAUAAGCCUCCC (ssRNA, RB490 with 2'-OMe A7) [RB492] as the binder, how does the Kd read?
A: 15.5 nM

Q: Which Kd does the source give for GGGAGGACGGCGCGCCUGGCAUAAGCCUCCC (ssRNA, RB490 with 2'-OMe G6, 2'-deoxy A7) [RB519] here?
A: < 10 nM

Q: GGGAGGACGGCGCGCCUGGCAUAAGCCUCCC (ssRNA, RB490 with 2'-OMe G25) [RB502] was tested. Which Kd did it give?
A: < 10 nM

Q: How did the Kd turn out when GGGAGGACGGCGCGCCUGGCAUAAGCCUCCC (ssRNA, RB490 with 2'-OMe G6) [RB491] was run?
A: < 10 nM

Q: Which Kd does the source give for GGGAGGACGGCGCGCCUGGCAUAAGCCUCCC (ssRNA, RB490 with 2'-OMe A21) [RB503] here?
A: < 10 nM

Q: For GGGAGGACGGCGCGCCUGGCAUAAGCCUCCC (ssRNA, RB490 with 2'-OMe G9) [RB497], which Kd is on record?
A: < 10 nM

Q: How did the Kd turn out when GGGAGGACGGCGCGCCUGGCAUAAGCCUCCC (ssRNA, RB490 with 2'-OMe A24) [RB506] was run?
A: < 10 nM

Q: With GGGAGGACGGCGCGCCUGGCAUAAGCCUCCC (ssRNA, RB490 with 2'-OMe U22) [RB504] as the binder, how does the Kd read?
A: 15.5 nM

Q: GGGAGGACGGCGCGCCUGGCAUAAGCCUCCC (ssRNA, RB490 with 2'-OMe G6,A7) [RB518] was tested. Which Kd did it give?
A: 15.5 nM

Q: Which Kd does the source give for GGGAGGACGGCGCGCCUGGCAUAAGCCUCCC (ssRNA, RB520 with 2'-F C15) [RB524] here?
A: 15.5 nM

Q: GGGAGGACGGCGCGCCUGGCAUAAGCCUCCC (ssRNA, RB490 with 2'-OMe A23) [RB505] was tested. Which Kd did it give?
A: < 10 nM

Q: How did the Kd turn out when GGGAGGACGGCGCGCCUGGCAUAAGCCUCCC (ssRNA, RB490 with 2'-OMe C8) [RB493] was run?
A: 15.5 nM

Q: For GGGAGGACGGCGCGCCUGGCAUAAGCCUCCC (ssRNA, RB524 with 2'-deoxy A7,G9) [RB526], which Kd is on record?
A: 15.5 nM

Q: Which Kd does the source give for GGGAGGACGGCGCGCCUGGCGUAAGCCUCCC (ssRNA, RB531 pattern with 2'-OMe G21) [RB532] here?
A: 15.5 nM

Q: Which Kd does the source give for GGAGGACGGCGCGCCUGGCAUAAGCCUCC (ssRNA, RB551 with PS C7-G8) [RB554] here?
A: < 10 nM

B2: EF-2 T1 (ssRNA)
RNA: GGGAGGACGAUGCGGUGCCAAAACACCCGUCUUGCAUAAGCCUCCUACGGCAACU
modifications: 2'-F C and U; 2'-OH A and G
Q: Which Kd does the source give for B2 here?
A: 15.5 nM

B3: E2-6 (RB431) (ssRNA)
RNA: GGGAGGACGAUGCGGAUAGACCGCGUCUGGCAUAAGCCUCCAAACACUCUGAUCCCAGACGACUCGCUGAGGAUCCGAGA
modifications: 2'-F C and U; 2'-OH A and G
Q: Which Kd does the source give for B3 here?
A: 15.5 nM

Q: With GGGAGGACGGCGAUCACACGCCUUGCGUAAGCCUCCC (ssRNA, 2'-F C and U; 2'-OH A and G) [EF-3 T5 (RB447)] as the binder, how does the Kd read?
A: 15.5 nM

Q: For GGAGGACGGCGCGCCUGGCAUAAGCCUCC (ssRNA, RB540 with PS G5-A6) [RB546], which Kd is on record?
A: 15.5 nM

Q: With GGGAGGACGAUGCGGUGCCAAAACACCCGUCUUGCAUAAGCCUCCU (ssRNA, 2'-F C and U; 2'-OH A and G) [EF-2 T2 (RB428)] as the binder, how does the Kd read?
A: 15.5 nM

Q: How did the Kd turn out when GGGAGGACGGCGCUAACGCCUGGCAUAAGCCUCCC (ssRNA, 2'-F C and U; 2'-OH A and G) [EF-31 T7 (RB444)] was run?
A: 15.5 nM

Q: For GGGAGGACGGCGCUAACGCCUGGCAUAAGCCUCCC (ssRNA, RB448 with 2'-OMe C11,G12,C17,G18) [RB455], which Kd is on record?
A: 15.5 nM

Q: Which Kd does the source give for GGGAGGACGGCGCUAACGCCUGGCAUAAGCCUCCC (ssRNA, RB448 with 2'-OMe at most of Stem 1 (G1,G2,G3,A4 and 3' partners)) [RB452] here?
A: 15.5 nM

Q: Which Kd does the source give for GGGAGGACGGCGCUAACGCCUGGCAUAAGCCUCCC (ssRNA, RB448 with 2'-OMe G22) [RB460] here?
A: 15.5 nM

Q: GGAGGACGGCGCGCCUGGCAUAAGCCUCC (ssRNA, RB540 with PS G9-C10) [RB550] was tested. Which Kd did it give?
A: < 10 nM

Q: Which Kd does the source give for GGGAGGACGAUGCGGUCUAAGCUGCGUCUGGCAUAAGCCUCACC (ssRNA, 2'-F C and U; 2'-OH A and G) [EF-31 T2 (RB439)] here?
A: 15.5 nM

B4: EF-31 (RB435) (ssRNA)
RNA: GGGAGGACGAUGCGGUCUAAGCUGCGUCUGGCAUAAGCCUCACCUACUCGAUACUCAGACGACUCGCUGAGGAUCCGAGA
modifications: 2'-F C and U; 2'-OH A and G
Q: With B4 as the binder, how does the Kd read?
A: 15.5 nM

Q: For GGAGGACGGCGCGCCUGGCAUAAGCCUCC (ssRNA, RB540 with PS C7-G8 and G8-G9) [RB561], which Kd is on record?
A: < 10 nM

Q: For GGGAGGACGGCGUCUAAGCGCCUGGCAUAAGCCUCCC (ssRNA, 2'-F C and U; 2'-OH A and G) [EF-31 T6 (RB443)], which Kd is on record?
A: 15.5 nM

B5: EF-22 (RB433) (ssRNA)
RNA: GGGAGGACGAUGCGGAUUCAACCCGCCUCUGGCAUAAGCCUACCCAUCGUGAUUGUCAGACGACUCGCUGAGGAUCCGAGA
modifications: 2'-F C and U; 2'-OH A and G
Q: B5 was tested. Which Kd did it give?
A: 15.5 nM

— patent publication US20100311820, “NUCLEIC ACID MODULATORS OF GLYCOPROTEIN VI” (Regado Biosciences, Inc, published 2010)
